Twelve sequences from patent publication US20250027090 can be followed below.

The target in data set [1] is T1, thrombin (native human beta-thrombin) (Homo sapiens) (UniProt P00734+P00734). Nature of the data set: EMSA. The conditions noted are these: for Kd: selection buffer, 10% glycerol, room temperature; for binding signal: 1 uM thrombin.
For data set [2], the target named is thrombin (native bovine alpha-thrombin) (Bos taurus) (UniProt P00735+P00735). Nature of the data set: ITC. The conditions noted are these: L-DNA (all nucleotides).
Data set [3] deals with T1, thrombin (native human beta-thrombin) (Homo sapiens). Description: ITC. The conditions noted are these: L-DNA (all nucleotides); physiological buffer pH 7.4, 25 C.
The target is the same in data set [4]. Description: inhibition. The following applies: L-DNA (all nucleotides); R0 pool, no inhibition up to 8 uM.

“ACGGAACGCGTTTCAAGACTACCGTGTTTGTTCCGT [Cy5-L-9-1t aptamer]” registered a Kd in data set [1] (L-DNA (all nucleotides)) of 21 nM. With “ACGGAACGCGTTTCAAGACTACCGTGTTTGTTCCGT [L-9-1t aptamer]”, the Kd in data set [2] (~26-fold weaker than human thrombin) was 1030 nM; in data set [3], 39 nM. For the sequence “CGGATCCAGTTACGGAACGCGTTTCAAGACTACCGTGTTTGTTCCGTTCATTCAGTAAGCTTCGG [L-9-1 aptamer]”, in data set [3], the dissociation constant Kd turned out to be 29 nM. “CGGATCCAGTTACGGANNNNNNNNNNNNNNNNNNNNNNNNNNNNNNTTCATTCAGTAAGCTTCGG [R0 L-DNA library pool]” had an IC50 in data set [4] of over 8000 nM. “CGGATCCAGTTACGGANNNNNNNNNNNNNNNNNNNNNNNNNNNNNNTTCATTCAGTAAGCTTCGG [R6 D-DNA pool]” had a binding signal in data set [1] of 70 % bound. Turning to “CGGATCCAGTTACGGANNNNNNNNNNNNNNNNNNNNNNNNNNNNNNTTCATTCAGTAAGCTTCGG [R9 L-DNA pool]”, the binding signal in data set [1] (L-DNA (all nucleotides), 200 nM pool) was found to be 70 % bound. In data set [3], “CGGATCCAGTTACGGATGAACTTGTTGAAACCCAACGGGAGAATCGTTCATTCAGTAAGCTTCGG [L-9-2 aptamer]” displayed a Kd of 168 nM.

Sequence “CGGATCCAGTTACGGATGAACTTGTTGAAACCCAACGGGAGCCTCGTTCATTCAGTAAGCTTCGGTGG [L-13 aptamer]” registered a Kd in data set [3] of 22 nM.

As to “GATGAACTTGTTGAAACCCAACGGGAGAATCGTTCATT [Cy5-L-9-2t aptamer]”, the Kd in data set [1] (L-DNA (all nucleotides)) was found to be 355 nM. “GATGAACTTGTTGAAACCCAACGGGAGAATCGTTCATT [L-9-2t aptamer]”: the Kd came to 426 nM in data set [2] (~1.7-fold weaker than human thrombin) and 251 nM in data set [3]. Sequence “GATGAACTTGTTGAAACCCAACGGGAGCCTCGTTCATT [Cy5-L-13t aptamer]” gave a Kd in data set [1] (L-DNA (all nucleotides)) of 28 nM. As for “GATGAACTTGTTGAAACCCAACGGGAGCCTCGTTCATT [L-13t aptamer]”, in data set [3], the Kd is 34 nM.

What is called Kd is the constant that tells how readily two partners part at equilibrium. In general, IC50 refers to the concentration that gives 50% inhibition. Low values mean greater potency in that assay, high ones weaker potency in that assay.
